According to US20250084158A1 (ABL BIO, published 2025):

Legend:
human CLL-1 on cells [1] = biological target: T1, human CLL-1 on cells (human, UniProt Q5QGZ9 1-265); assay: cell-based or functional assay
T1 sequence (looked up): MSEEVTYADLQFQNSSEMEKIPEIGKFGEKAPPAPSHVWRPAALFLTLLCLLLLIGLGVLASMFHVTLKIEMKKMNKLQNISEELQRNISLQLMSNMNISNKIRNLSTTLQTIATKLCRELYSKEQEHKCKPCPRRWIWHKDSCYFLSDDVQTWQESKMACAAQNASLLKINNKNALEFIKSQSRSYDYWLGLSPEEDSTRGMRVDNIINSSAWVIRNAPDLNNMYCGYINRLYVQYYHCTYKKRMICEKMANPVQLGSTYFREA

human CLL-1 on cells [2] = biological target: T1, human CLL-1 on cells; assay: hybridoma screening, ELISA and FACS
human CLL-1 on cells [3] = biological target: T1, human CLL-1 on cells; assay: FACS, PL21 cells (2nd Ab only 2.82)
Protocol: (§1) To evaluate cell binding property, the chimeric antibody candidates of Example 1.2. were analyzed in CLL1 negative cells (HEK293E and Jurkat) and various CLL1 expressing cancer cells by using FACS.
(§2) Briefly, cells were incubated with antibodies at 4° C. for 1 hr. Firstly, the cells were washed with an assay buffer (1% BSA in PBS). Then, an anti-human IgG Fc conjugated with FITC (Fluorescein isothiocyanate) (Sigma, F9512) was added to each well and incubated at 4° C. for 1 hr. After wash, the MFI (Median Fluorescence Intensity) of FITC was measured by BD FACS Cal ibur (BD Biosciences).

human CLL-1 on cells [4] = biological target: T1, human CLL-1 on cells; assay: FACS, EOL-1 cells (2nd Ab only 2.53)
Protocol: as §1, §2

human CLL-1 on cells [5] = biological target: T1, human CLL-1 on cells; assay: FACS, huCLL1_293E cells (2nd Ab only 5.05)
Protocol: as §1, §2

human CLL-1 on cells [6] = biological target: T1, human CLL-1 on cells; assay: FACS, HL60 cells (2nd Ab only 5.09)
Protocol: as §1, §2

human CLL-1 on cells [7] = biological target: T1, human CLL-1 on cells; assay: FACS, U937 cells (2nd Ab only 4.77)
Protocol: as §1, §2

human CLL-1 on cells [8] = biological target: T1, human CLL-1 on cells; assay: FACS, OCI-AML2 cells (2nd Ab only 3.28)
Protocol: as §1, §2

B1: hu16C6 (VH1/VL1(M14)) (antibody, V domains shown)
VH: QVQLVQSGAEVKKPGASVKISCKASGYSFTGYYMHWVKQSHGQGLEWIGHVNPYNGATSFNRNFKDRASLTVDTSTSTVYMELSSLRSEDSAVYYCGRSAYGYYERHFDYWGQGTLVTVSS
VL: DIVMTQSPDSLAVSLGERATINCKASQSVDYDADSYMNWYQQKPGQPPKLLIYAASNLQSGVPDRFSGSGSGTDFTLTISSLQAEDVAVYYCQQSDRDPLTFGGGTKLEIK
ADCC reporter bioassay (luminescence), EC50 (human CLL-1 on cells [1]): 0.13 nM

B2: hu33C2 (VH3/VL6 (M12)) (antibody, V domains shown)
VH: QVQLVQSGAEVKKPGASVKVSCKASGYSFTGYAMNWVRQAPGQRLEWIGLINPYNGGAMYNQKFKGRATLTVDTSASTAYMELSSLRSEDTAVYYCARDYRYEGHLDYWGQGTLVTVSS
VL: EIVLTQSPATLSLSPGERATLSCSATSSVSYMHWYQQKPGQAPRRWIYDTSKLASGIPARFSGSGSGTSYTLTISSLEPEDFAVYYCQQWSSDSPTFGQGTKLEIK
ADCC reporter bioassay (luminescence), EC50 (human CLL-1 on cells [1]): 0.141 nM

B3: ch84A2 (N12S) (antibody, V domains shown)
VH: EVQLQQSGPELVKSGASVKMSCKASGYTFTSYVIHWVKQMPGQGLEWIGLFNPYNDDVNYNEKFKGKATLTSDKYSSTAYLDLSSLTSEDSAVYYCAREGVHYGRPWFGYWGQGTLVTVSA
VL: DIKMTQSPSSMSASLGERVTITCKASQDIKSYLNWFQQKPGKSPKTLIYRASRLVDGVPARFSGSESGQDYSLTISSLEFEDMGIYYCLQYDEFPLTFGAGTKLELK
ADCC reporter bioassay (luminescence), EC50 (human CLL-1 on cells [1]): 0.416 nM

B4: 16C6 (mouse hybridoma clone) (antibody, V domains shown)
VH: EVQLQQSGPELVKPGASVKISCKASGYSFTGYYMHWVKQSHVKSLEWIGHVNPYNGATSFNRNFKDKASLTVDKSSSTAYMELHSLTSEDSAVYYCGRSADGYYERHFDYWGQGTTLTVSS
VL: DIVLTQSPASLAVSLGQRATISCKASQSVDYDGDSYMNWYQQKPGQPPKLLIYAASNLQSGIPARFSGSGSGTDFTLNIHPVEEEDAATYYCQQSDKDPLTFGAGTKLELK
notes: Mouse monoclonal antibody from a Balb/c hybridoma; also called murine 16C6
binding result (human CLL-1 on cells [2]): binds

B5: 33C2 (mouse hybridoma clone) (antibody, V domains shown)
VH: EVQLQQSGPELVKPGASMKISCKASGYSFTGYAMNWVKQSHGKNLEWIGLINPYNGGAMYNQKFKGKATLTVDKSTSTAYMELLSLTSEDSAVYYCARDYRYDGHLDYWGQGTTLTVSS
VL: QIVLTQSPVIMSASPGEKVTMTCSATSSVSYMHWYQQKSGTSPKRWIYDTSKLASGVPVRFSGSGSGTSYSLTISRMEAEDAATYYCQQWSSDSPTFGVGTKLELK
notes: Mouse monoclonal antibody from a Balb/c hybridoma; also called murine 33C2
binding result (human CLL-1 on cells [2]): binds

B6: ch84A2(NA/N12S) (antibody, human IgG1, kappa, N297A, V domains shown)
VH: B3 VH
VL: DIKMTQSPSSMSASLGERVTITCKASQDIKSYLNWFQQKPGKSPKTLIYRASRLVDGVPARFSGSESGQDYSLTISSLEFEDMGIYYCLQYDEFPLTFGAGTKLELKR
notes: Chimeric, human IgG1 N297A and human kappa; also called ch84C2; chimeric antibody of 84A2
MFI(FL1-H) (human CLL-1 on cells [3]): 27.6
MFI(FL1-H) (human CLL-1 on cells [4]): 3.36
MFI(FL1-H) (human CLL-1 on cells [5]): 72.5
MFI(FL1-H) (human CLL-1 on cells [6]): 14.5
MFI(FL1-H) (human CLL-1 on cells [7]): 30.5
MFI(FL1-H) (human CLL-1 on cells [8]): 13
